Measurements from the supplement of paper PMC10567573.

B1: RHOBTB2 (parent)
chain: HHHHGRDFLLRAASFDVCESVDEA
B2: ZNF263 (parent)
chain: KPYKCTLCGENFSHRSNLIRHQRI

Variants of: B1
Assay: protein stability index of a GFP-peptide fusion (GPS, HEK-293T) (PSI 1-6); higher = more stable
Details: c terminus: a fixed tail appended
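Further: lentivirally expressed fusions sorted by FACS into six bins by GFP to DsRed ratio, PSI derived from sequencing read proportions per bin multiplied by bin number.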

Protein stability index: each site, then its substitutions
L10: M 3.64, C 4.2, F 2.96, I 4.21, V 4.06, K 4.09, G 4.29, T 4.8, A 3.94, Q 4.86, N 5.01, D 5.17, S 3.81, E 5.02, R 4.55, H 4.69, P 4.18, W 2.34, Y 3.9
F8: W 3.28, A 5.04, R 4.74, H 5.06, E 4.89, D 5.15, L 4.45, I 4.19, K 4.61, Y 3.57, C 4.74, V 4.66, T 4.28, Q 5.04, S 4.37, P 5.21, N 5.33, G 4.74, M 4.86
L9: Y 3.54, N 5.06, Q 5.09, G 4.6, A 4.98, F 3.2, I 4.06, R 4.3, M 4.41, V 4.33, P 4.81, D 5.28, H 5.1, S 4.03, T 4.53, C 4.48, K 4.35, E 4.89
H4: N 4.15, Q 4.11, M 3.61, I 3.83, D 4.12, Y 3.3, T 3.94, E 3.96, G 3.73, R 3.62, C 2.67, W 2.31, F 3.38, K 3.25, S 4.15, A 3.67, P 4.59, L 3.65, V 4.02
D7: R 3.16, I 1.99, G 3.34, S 3.17, A 2.97, H 2.34, Q 3.18, M 1.79, K 3.85, T 2.92, P 3.31, C 1.92, N 3.25, Y 2.04, E 3.8, W 2.29, L 1.82, F 2.06, V 2.87
A13: N 4.38, K 4.09, S 3.96, W 2.45, C 1.87, M 2.49, Q 3.84, E 4.38, Y 2.87, L 3.2, F 1.92, I 3.12, P 4.66, V 3.14, H 3.75, T 3.49, R 3.73, D 4.51, G 4.33
D16: A 3.37, C 1.97, G 3.06, H 2.84, I 2.14, Q 3.5, K 2.79, Y 1.67, F 1.89, L 2.11, R 2.48, N 3.31, T 3.36, S 3.17, P 3.19, V 2.33, E 3.74, M 2.44
R6: L 3.81, V 2.63, A 4.33, T 4.2, Q 4.37, F 2.8, N 4.59, S 3.85, K 4.5, P 4.19, H 4.41, E 5.07, C 3.51, D 4.61, I 2.12, Y 3, M 3.49, W 2.55, G 4.7
G5: N 3.95, C 2.63, Q 4.21, Y 2.33, W 2.21, T 4.15, K 4.2, R 4.3, D 4.86, S 4.61, V 3.37, L 2.6, H 4.34, A 3.83, M 3.42, F 1.6, E 4.42, P 4.44, I 3.27
H2: W 3.35, F 3.69, E 4.75, M 3.96, Y 4.16, P 4.49, S 2.62, V 3.46, D 4.67, A 4.04, Q 4.04, G 3.72, T 1.8, N 4.52, R 3.9, C 3.43, L 3.93, I 3.92, K 4.67
A12: W 2.67, Q 3.73, K 4.26, D 4.55, P 4.52, F 1.92, I 2.54, L 3.14, S 3.29, T 1.66, Y 2.08, V 3.03, M 2.96, G 4.25, E 5.13, N 3.82, R 4.37, C 2.4, H 2.94
R11: K 4.17, E 5.3, C 2.63, A 3.29, I 2.41, V 2.85, Y 2.39, D 5.18, T 3.72, L 2.35, H 4.06, Q 3.94, M 2.38, W 1.44, F 1.67, S 3.85, G 4.43, N 3.87, P 4.26
H1: V 3.21, G 4.55, D 4.88, A 4.49, W 3.36, S 4.34, L 3.74, E 4.42, C 4.02, I 3.45, K 4.35, T 4.59, Y 3.84, M 4.17, F 1.48, P 4.71, R 3.92, Q 4.26, N 4.53
F15: C 4.57, G 4.38, V 4.33, H 4.11, A 4.78, L 3.24, Y 3.92, T 4.74, R 4.88, K 4.58, N 4.35, M 4.74, S 4.76, E 4.86, P 4.37, W 3.94, Q 4.1, I 3.94, D 5.01
S14: T 3.47, E 3.89, Q 4.17, Y 2.79, G 3.15, M 3.05, D 4.13, L 2.88, A 3.55, K 3.17, H 3.57, C 3.36, V 2.84, R 2.62, P 4.22, N 4.5, I 2.73, W 2.66, F 3.03
V17: F 3.12, C 4.17, A 4.04, D 4.54, E 4.56
H3: C 2.92, V 3.65, K 3.04, G 3.9, I 3.52, W 2.43, E 4.71, A 3.58, T 3.58, S 3.83, P 3.56, L 3.62, Q 3.87, M 3.4, D 4.67, R 2.76, F 3.33, N 4.44, Y 3.51

Variants of: B2
Assay: as above
Details: c terminus: a fixed tail appended

Protein stability index of substitutions, site by site:
I24: Y 2.51, F 1.93, K 2.89, D 3.09, H 2.45, R 3.16, E 3.68, S 2.53, C 3.76, M 2.74, A 2.81, T 2.64, P 2.59, Q 4.56, N 3.11, L 2.3, G 2.75, W 2.4, V 2.63
R23: P 1.33, T 1.88, S 2.28, W 1.65, V 2.01, Y 2.57, Q 2.34, N 2.63
